Results from the supplement of paper PMC10126150.
± gives the standard deviation of the averaged measurements.

test system: ATP; assay: switch fluorescence ratio, 500 uM ATP over buffer (Cy3 cluster intensity, sum of 5 cycles each) (fold (ratio)); higher = stronger signal-on switching upon ATP binding; sequences stand for … in TCGTCGGCAGCGTCAGATGTGTATAAGAGACAGTTTTTTTTTTTTTTTTTTTTTTTTT…TC; details: aptamer strand: ATP DNA aptamer (quencher-CACCTGGGGGAGTATTGCGGAGGAAGG + anchor), 100 nM annealed; ATP concentration: 500 uM
How it was run: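 Between each of five buffer/ATP cycles, the flow-cell was stripped with NaOH and re-annealed. Each cycle imaged Cy3-labelled switching-strand clusters, annealed to 100 nM quencher-labelled ATP aptamer on a modified Illumina MiSeq flow-cell, first in selection buffer and then after 15 min with 500 uM ATP at 22 °C. The fluorescence ratio is summed target-cycle over summed buffer-cycle Cy3 intensity per cluster, averaged per switch-domain sequence, with clusters outside 100-1000 RFU excluded.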
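Note: ATP exposure 15 min at 22 °C before imaging.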

Row | Sequence | switch fluorescence ratio
1 | TATTTGGAGG | 0.992 ± 0.0044
2 | TATTTGGCAT | 1.036 ± 0.0029
3 | TATTTGGGTC | 0.98285 ± 0.00046
4 | TATTTGGTTT | 1 ± 0.017
5 | TATTTGTACT | 1 ± 0.013
6 | TATTTGTGGG | 0.9845 ± 0.0083
7 | TATTTGTGTC | 0.982 ± 0.057
8 | TATTTGTGTG | 0.998 ± 0.029
9 | TATTTTAAAA | 0.986 ± 0.022
10 | TATTTTAGC | 0.971 ± 0.034
11 | TATTTTATTG | 1.03 ± 0.02
12 | TATTTTGAAG | 1.07 ± 0.13
13 | TATTTTGACG | 0.9151 ± 0.0046
14 | TATTTTGCCT | 1.036 ± 0.01
15 | TATTTTGCGT | 1.002 ± 0.0024
16 | TATTTTGGTT | 0.999 ± 0.015
17 | TATTTTGTAT | 1 ± 0.019
18 | TATTTTGTGG | 0.984 ± 0.026
19 | TATTTTTCTT | 0.975 ± 0.041
20 | TATTTTTGGA | 0.981 ± 0.043
21 | TATTTTTGGC | 1.01 ± 0.018
22 | TATTTTTGGG | 0.99 ± 0.023
23 | TATTTTTGTT | 1.05 ± 0.074
24 | TATTTTTTCT | 0.994 ± 0.045
25 | TATTTTTTTT | 1.01 ± 0.043

Row | Sequence | switch fluorescence ratio
26 | TCAAAACTTG | 1.01 ± 0.057
27 | TCAAAAGTCG | 1.03 ± 0.012
28 | TCAAAAGTTG | 1.04 ± 0.044
29 | TCAAAATATT | 1.006 ± 0.0065
30 | TCAAAATGCT | 1.09 ± 0.058
31 | TCAAAATGTG | 0.958 ± 0.015
32 | TCAAACGCGT | 1.01 ± 0.037
33 | TCAAACGGGG | 1 ± 0.045
34 | TCAAACGTAG | 0.9793 ± 0.0085
35 | TCAAACTGTT | 1.08 ± 0.025
36 | TCAAAGAGGT | 0.98204 ± 0.00058
37 | TCAAAGGGTC | 1 ± 0.088
38 | TCAAAGTGTA | 0.968 ± 0.064
39 | TCAAATAGTT | 0.997 ± 0.0026
40 | TCAAATGGGC | 0.9965 ± 0.0031
41 | TCAACAGTTG | 0.998 ± 0.011
42 | TCAACCAATG | 1.04 ± 0.0039
43 | TCAACCGGGG | 1.079 ± 0.0021
44 | TCAACCGTTT | 1.02 ± 0.065
45 | TCAACGCAGG | 1.19 ± 0.065
46 | TCAACTATGG | 0.989 ± 0.075
47 | TCAACTGGAT | 0.9502 ± 0.0053
48 | TCAAGCACTT | 1.25 ± 0.028
49 | TCAAGCCCAT | 1 ± 0.045
50 | TCAAGCTCAT | 0.974 ± 0.023

Row | Sequence | switch fluorescence ratio
51 | TCAAGGCACC | 1.1 ± 0.023
52 | TCAAGGTTCT | 0.998 ± 0.014
53 | TCAAGTGAGG | 1.01 ± 0.011
54 | TCAAGTGGCC | 1.02 ± 0.037
55 | TCAAGTTTGG | 1.02 ± 0.018
56 | TCAATAATCG | 1.01 ± 0.055
57 | TCAATAGAAT | 1.06 ± 0.14
58 | TCAATAGAGT | 1.039 ± 0.0024
59 | TCAATCTCCT | 1.03 ± 0.088
60 | TCAATGATTT | 0.969 ± 0.022
61 | TCAATGGGGA | 0.998 ± 0.013
62 | TCAATGTAGT | 1 ± 0.058
63 | TCAATTAACT | 1.03 ± 0.013
64 | TCAATTCGAG | 0.9884 ± 0.009
65 | TCAATTGTAA | 1.05 ± 0.051
66 | TCAATTTTGC | 1.02 ± 0.034
67 | TCAATTTTTT | 0.993 ± 0.016
68 | TCACAGCCTG | 0.9973 ± 0.0019
69 | TCACAGGGGG | 1.14 ± 0.12
70 | TCACATGGGA | 0.976 ± 0.011
71 | TCACCAGATT | 1.017 ± 0.008
72 | TCACCATTCA | 1.052 ± 0.0059
73 | TCACGTGGTA | 1.02 ± 0.021
74 | TCACTATACT | 1.41 ± 0.085
75 | TCACTGGGTA | 0.995 ± 0.014

Row | Sequence | switch fluorescence ratio
76 | TCACTGGTTC | 1.032 ± 0.0038
77 | TCACTGTCGC | 1.13 ± 0.07
78 | TCACTGTTTC | 1.011 ± 0.0076
79 | TCACTTCAAT | 1.033 ± 0.0099
80 | TCACTTTGCG | 0.984 ± 0.032
81 | TCAGAAATAG | 1.24 ± 0.15
82 | TCAGAGGCTG | 0.988 ± 0.015
83 | TCAGAGGGGG | 0.992 ± 0.036
84 | TCAGAGTGTG | 0.989 ± 0.019
85 | TCAGATAAAT | 1.27 ± 0.35
86 | TCAGATTGCA | 1.007 ± 0.0025
87 | TCAGCGAAAT | 0.99 ± 0.016
88 | TCAGCGACTT | 1.01 ± 0.031
89 | TCAGCGGGGA | 1.001 ± 0.0066
90 | TCAGCGTACG | 1.01 ± 0.014
91 | TCAGCGTGTG | 1.0181 ± 0.00046
92 | TCAGGACTCG | 0.982 ± 0.035
93 | TCAGGATATG | 0.988 ± 0.035
94 | TCAGGCGTTT | 0.996 ± 0.024
95 | TCAGGGACAG | 1.02 ± 0.021
96 | TCAGGGCAGC | 1.01 ± 0.019
97 | TCAGGGCGAT | 1.03 ± 0.026
98 | TCAGGGGCTT | 1.16 ± 0.28
99 | TCAGGGGGAA | 1.01 ± 0.024
100 | TCAGGGGTTA | 1.03 ± 0.031
